Test system: MS2 coat protein
Experiment: apparent KD of MS2 coat protein; designed switch direction (-1 OFF switch, 1 ON switch): -1; higher = weaker reporter binding
In short: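 On Illumina chips, designed RNA switches with common flanks were made by stalled E. coli RNA polymerase. Titrations with SNAP-549-labelled MS2 coat protein, doubling from 0.7 or 1.5 nM to 3 µM, were done with no input, with 200 uM small-molecule ligand, or with an oligonucleotide input. Apparent KD is the median per design over clusters, from curve fits of normalised cluster fluorescence.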

[1] = Eterna round: R95, input ligand: FMN 200 uM
[2] = Eterna round: R95, input ligand: microRNA oligo, concentration not stated
[3] = Eterna round: R95, input ligand: none
[4] = input ligand: microRNA oligo, concentration not stated

Sequence	apparent KD of MS2 coat protein [1] [µM]	apparent KD of MS2 coat protein [2] [µM]	apparent KD of MS2 coat protein [3] [µM]	apparent KD of MS2 coat protein (input ligand: FMN 200 uM) [µM]	apparent KD of MS2 coat protein (input ligand: none) [µM]	apparent KD of MS2 coat protein [4] [µM]
AAAUACAAGUAAAGAUCCUACAUGAGGAUCACCCAUGUGCUCGUCUUGUAAAGUACUAUCACGAAAGUGAUAGUACA [Sensor 3, v1 - 22] (puzzle: Sensor v3, turn-off variant 1)	0.0457	0.0315	0.051	–	–	–
UAUCUACAUGAGGAUCACCCAUGUGAGGAUAUCAAAACCAGAGCGGAUCUCUGGCCCAUGAGAAGGUACAUGGU [ElNandoxlusion 5 - Jieux - Exclusion 1] (Eterna round: R97, puzzle: Exclusion 1)	–	–	–	0.0592	0.02	–
UUAAUUCUGAUUCUUGAAAUACAUGAGGAUCACCCAUGUUCACAGGAUAUUGAUUAUGUUAGUAACAAGAAGGGUGUAACAUAU [JR_ExcNG3_Sub037] (Eterna round: R96, puzzle: Exclusion NG 3)	–	–	–	–	–	0.0264
UGUUGUCGCGCAGGAUAUGGCCAACAGGCCCUAGGAUAUCCGAAAGGAGAAGGAGCGCCAACAGGCGAGAAGGGCGGGACAACU [pwkr exNG2 2xF7 2xFMN.16] (Eterna round: R96, puzzle: Exclusion NG 2)	–	–	–	0.0195	0.0297	0.00403
CGGUAGUAUGUAGGAUAUCGGUCAGUUUCUGAUCGAGAAGGACAUGAGGAUCACCCAUGUAAAACGACCGGUUUCUGGUUGCCG [JL ENG1 3.55] (Eterna round: R96, puzzle: Exclusion NG 1)	–	–	–	0.0154	0.0156	0.012
UUGUUAUAUGAAGGAUAUACUUAACAUGAGGAUCACCCAUGUGGUGUUGUGAGUGAGUGAGUUUAGUAGAAGGUCAAUUCUUUU [JMF's solution 94] (Eterna round: R96, puzzle: Exclusion NG 2)	–	–	–	0.735	0.421	0.44
UAGCAUUGCCUUUGGUAGUGCUAUACAUGAGGAUCACCCAUGUAGGAUAUGGUCGGCUUUGCUGACCAGAAGGACAUGUGUAUU [MOD2 ENG3 1.04 by JL] (Eterna round: R96, puzzle: Exclusion NG 3)	–	–	–	0.159	0.0931	0.0915
GCAUGCUUUUUGCUCGUUUACAUGAGGAUCACCCAUGUACAUGGGUGAGCCGCAUGUACAGAAAGGAAAACUUUUUG [Alacar Attempt 2] (Eterna round: R97, puzzle: Sensor, turn-off variant 1)	–	–	–	0.0211	0.0247	–
GAUUAGUGAGGAUAUGGUAAAGAUAAGAUGAUGAAAGAACUCCAGAAGGCACAUGAGGAUCACCCAUGUAGUAU [Mat - Exclusion 4 - Mod of JL - D22] (puzzle: Exclusion 4)	–	0.0216	–	–	–	–
AGCUGUGGCCGAGGAUAUCUCAUAGUCCCAACCGAAAUAUAAUCGGACAUGAGGAUCACCCAUGUAGAGAAGGCGGUCUCAGCA [Eli eng2 - 071] (Eterna round: R96, puzzle: Exclusion NG 2)	–	–	–	0.115	0.151	0.0407
UUGUUGUAUGUAGGAUAUGCGUGUUAUUAUUAUGCAGAAGGACAUGAGGAUCACCCAUGUAUAUUAUUAUUAUAUGUUAUAUAU [Title] (Eterna round: R96, puzzle: Exclusion NG 1)	–	–	–	–	–	0.0176
UGCAGACGAGGAUAUAAAUGAUAUAACAUGAGGAUCACCCAUGUACGAUCGAAUGAUCGUUUAGAAGGCGUCUGCU [E5/11-A3] (Eterna round: R97, puzzle: Exclusion 5)	–	–	–	0.0141	0.0155	–
UUUUCUUUUGUGAGGAUAUACUUCUUUUUCUUUUUGUAGAAGGCACAUGAGGAUCACCCAUGUUUUCUUUUCUC [JR_BME4_Sub028] (puzzle: Brourd's mod of Exclusion 4)	–	0.0137	–	–	–	–
CUUUUGUCAGGAUAUGAGUAGUAGAACAAUAGUACUACUACUCAGAAGGGACAUGAGGAUCACCCAUGUUCCUC [Fiskers Ex 4 Super stable 44 mod 19] (puzzle: Exclusion 4)	–	0.0162	–	–	–	–
GCAGGAUAAGUGAGGAUAUACCUCUGGAUACAGAGGUAGAAGGCACAUGAGGAUCACCCAUGUCAUUCACCUGC [Fiskers BMX 4 - 77] (puzzle: Brourd's mod of Exclusion 4)	–	0.0144	–	–	–	–
AUAAAAGAAGUUAGGAUAUGGAAUCGUGGCAACGACCAGAAGGAACUUGAGGAUCACCCAAGUGAUUCUGAUCG [Atzaace] (Eterna round: R97, puzzle: Brourd's mod of Exclusion 4)	–	–	–	0.0152	0.0141	–
GUAAUGCUGCGAGGAUAUACAUGAGGAUCACCCAUGUGGAUGUCUGAGGCUUUGCCUCAGACGAUGUAGAAGGCGCAGUAAAAU [Mat - Exclusion NG 2 - Mod of JL - D53] (Eterna round: R96, puzzle: Exclusion NG 2)	–	–	–	0.0875	0.0283	0.0115

Sequence	apparent KD of MS2 coat protein [1] [µM]	apparent KD of MS2 coat protein [2] [µM]	apparent KD of MS2 coat protein [3] [µM]	apparent KD of MS2 coat protein (input ligand: FMN 200 uM) [µM]	apparent KD of MS2 coat protein (input ligand: none) [µM]	apparent KD of MS2 coat protein [4] [µM]
CUAUUGGCAGGAUAUGCUUUUUUUGACAUGAGGAUCACCCAUGUGAUGCAUUUUGGGUUUGCAGAAGGGCCUGAGU [JR_E5_Sub037] (puzzle: Exclusion 5)	–	0.0649	–	–	–	–
GAACUGAAGCUUUGCUUUAGUCGUACAUGAGGAUCACCCAUGUAGGAUAUGGUAGGCUUUGCUUACUAGAAGGACAGAGUGAUC [Mat - Exclusion NG 3 - Mod of JL - D68] (Eterna round: R96, puzzle: Exclusion NG 3)	–	–	–	0.0618	0.113	0.0738
UUUAUAAUUUCAAUCUUCGCUGGCGAACUUACGCCAGCCACAUGAGGAUCACCCAUGUUUUUUGUUCGUUUUAUUCU [Gelaoren] (puzzle: Sensor v3, turn-off variant 2)	0.0195	0.0666	0.0211	–	–	–
GGUUGACAUGAGGAUCACCCAUGUGAGGAUAUGCGAGAGAAAAAAGUGAGGAAGAAUAGCAGAAGGCGCUGUCG [salish99-ex1_r3_011] (puzzle: Exclusion 1)	0.0446	0.0417	0.0211	–	–	–
AAGGAUAGAGGAUAUACAUAGAUACAGAUUCAUGUAGACCUACAUGAGGAUCACCCAUGUAGAAGGCUAUCCUA [Fiskers Ex 2 - 11] (puzzle: Exclusion 2)	–	0.016	–	–	–	–
UAUAUAUAGUAAGGAUAUGUAUUUAUUUCAUAAACAGAAGGUACUGACAUGAGGAUCACCCAUGUUUUAGUGUGGGCAUGUAGA [JMF's solution 21] (Eterna round: R96, puzzle: Exclusion NG 1)	–	–	–	–	–	0.0621
CUCAUGUUGGAGGAUAUAUUUGUCAACCGACCGAUAGAAGGCCACACAUGAGGAUCACCCAUGUCAUCCGGAGA [Eternabot (Original) Solution 50] (Eterna round: R97, puzzle: Exclusion 6)	–	–	–	0.0283	0.255	–
AUUUUAAUAUAGGAUAUCGAAAUAAUUAUUUAACGAGAAGGAUGAACAUGAGGAUCACCCAUGUGGUAUCAUGG [Mat - Exclusion 6 - JL Mod - D32] (puzzle: Exclusion 6)	0.178	0.159	0.163	–	–	–
AGUCCUAGUCAAGGAUAUACACCGAAGAAAUACGUAGAAGGUGACAUGAGGAUCACCCAUGUAGGGCCUCUGGAAACAGAGGAA [Indiinbi] (Eterna round: R96, puzzle: Exclusion NG 1)	–	–	–	0.208	0.143	0.107
CAGAAGGGAGGAUAUACAUGACCGUUUUAAUGGUUUUUAGUACAUGAGGAUCACCCAUGUAGAAGGCCCGAACU [EX2 B.23] (Eterna round: R97, puzzle: Exclusion 2)	–	–	–	0.051	0.0218	–
GCUUGUAGAGGAUAUACGAGGGCCCGAGCGGAUAACACCGCACAUGAGGAUCACCCAUGUAGAAGGCUACUACC [JL-ex2-4.17 ViennaUCT mod] (Eterna round: R97, puzzle: Exclusion 2)	–	–	–	0.495	0.0923	–
AUCGUACAGCAAAGCUGUACGAGUACAUGAGGAUCACCCAUGUAGGAUAUGGUACGCAAAGCGUGCUAGAAGGAUAUGAGAUUU [Mat - Exclusion NG 3 - Mod of JL - D101] (Eterna round: R96, puzzle: Exclusion NG 3)	–	–	–	0.0485	0.0487	0.0304
CAUUAAACGGAGGAUAUCCUAUAUAUAAUAAUAGGAGAAGGUCGUACAUGAGGAUCACCCAUGUGUGGACAUGG [something] (puzzle: Exclusion 6)	0.107	0.206	0.249	–	–	–
AGAUGGCGAGGAUAUACAUGAGGAUCACCCAUGUGAAGAUAUAAAGUGAGGAAGAAAAGUAGAAGGCGCUGUCA [Mat - Exclusion 3 - Mod of Salish D25] (puzzle: Exclusion 3)	0.225	0.0488	0.0637	–	–	–
AAUAAGCUAGGAUAUACAUGAGGAUCACCCAUGUGAGGGCACCGCCGGCGCGGGCCCGGUAGAAGGAGUCAUAA [Exc;s3-V] (puzzle: Exclusion 3)	0.0221	0.0343	0.0277	–	–	–
GGUUGGCGAGGAUAUACAUGAGGAUCACCCAUGUGAGAGAAUAAAGUGAGGAAGAAAAGUAGAAGGCGCUGACG [salish99_ex3_r3_013] (puzzle: Exclusion 3)	1.03	0.0421	0.047	–	–	–
UGUAGUUCAGGAUAUGAUGUUUAAUACAUGAGGAUCACCCAUGUAGAUCCUGAAUUUACAUCAGAAGGGAAUAUUU [JL-ex5-4.57 Brourd mod] (Eterna round: R97, puzzle: Exclusion 5)	–	–	–	0.0173	0.0149	–
